Data taken from patent US20260022175A1 (Chugai, published 2026).

T1: human FcγRIIa H extracellular domain (human, UniProt P12318 34-217)
T1 construct: extracellular domain; also called hFcγR IIa H
T1 sequence (looked up): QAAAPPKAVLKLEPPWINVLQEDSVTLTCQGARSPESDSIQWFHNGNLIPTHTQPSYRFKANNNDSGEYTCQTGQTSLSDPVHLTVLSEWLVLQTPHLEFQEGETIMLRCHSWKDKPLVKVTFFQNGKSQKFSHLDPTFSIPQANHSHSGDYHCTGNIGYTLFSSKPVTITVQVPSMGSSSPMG

T2: human FcγRIIa R extracellular domain (human, UniProt P12318 34-217)
T2 construct: extracellular domain; also called hFcγR IIa R
T2 sequence (looked up): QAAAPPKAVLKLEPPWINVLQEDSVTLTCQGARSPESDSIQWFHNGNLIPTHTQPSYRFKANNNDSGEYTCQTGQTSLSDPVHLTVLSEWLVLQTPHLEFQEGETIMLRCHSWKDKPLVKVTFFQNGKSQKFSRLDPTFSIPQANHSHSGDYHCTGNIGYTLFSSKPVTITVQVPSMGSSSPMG

T3: human FcγRIIb extracellular domain (human, UniProt P31994 43-217)
T3 construct: extracellular domain; also called hFcγR IIb
T3 sequence (looked up): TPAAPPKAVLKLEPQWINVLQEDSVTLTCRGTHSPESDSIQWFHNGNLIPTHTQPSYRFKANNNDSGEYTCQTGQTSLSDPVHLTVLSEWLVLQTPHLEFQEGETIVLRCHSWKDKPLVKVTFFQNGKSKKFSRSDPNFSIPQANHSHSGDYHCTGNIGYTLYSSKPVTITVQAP

T4: hFcγRIIaH on hFcγRIIaH-expressing Jurkat cells (human, UniProt P12318 34-317)
T4 sequence (looked up): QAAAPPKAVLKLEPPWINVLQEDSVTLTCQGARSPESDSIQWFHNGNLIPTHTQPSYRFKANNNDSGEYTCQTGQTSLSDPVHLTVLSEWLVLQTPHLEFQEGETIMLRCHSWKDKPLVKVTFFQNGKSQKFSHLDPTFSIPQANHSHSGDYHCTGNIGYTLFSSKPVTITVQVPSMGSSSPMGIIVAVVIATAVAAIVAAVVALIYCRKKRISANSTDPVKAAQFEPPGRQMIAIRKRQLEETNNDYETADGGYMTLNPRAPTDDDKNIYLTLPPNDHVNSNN


Tests used:
[1] = molecular target: T1, human FcγRIIa H extracellular domain; test: SPR Biacore 8K+, antibody captured, FcγR as analyte, 1:1 Langmuir model;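 further: antibodies captured on a streptavidin chip through a biotinylated anti-human Fab kappa reagent, with FcγR extracellular domains injected in pH 7.4 phosphate buffer at 25 °C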
[2] = molecular target: T5, human FcγRIIIa V extracellular domain (human, UniProt P08637 17-208); test: as above
T5 construct: extracellular domain; also called hFcγR IIIa V

[3] = molecular target: T6, human FcγRIIIa F extracellular domain (human, UniProt P08637 17-208); test: as above
T6 construct: extracellular domain; also called hFcγR IIIa F

[4] = molecular target: T7, human FcγRIa extracellular domain (human, UniProt P12314 16-292); test: as above
T7 construct: extracellular domain; also called hFcγR Ia; hFcγRIa

[5] = molecular target: T2, human FcγRIIa R extracellular domain; test: as above
[6] = molecular target: hFcγRIIIaV on hFcγRIIIaV-expressing Jurkat cells (human, UniProt P08637 17-254); test: cell-based or functional assay
[7] = molecular target: T1, human FcγRIIa H extracellular domain; test: SPR Biacore 8K+; KD of G1d divided by KD of this antibody;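 further: antibodies captured on an anti-Fab-kappa streptavidin chip, soluble FcγR ectodomains flowed over, KD by steady-state fit for FcγRIIb and Langmuir kinetic model for the other receptors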
[8] = molecular target: T5, human FcγRIIIa V extracellular domain; test: as above
[9] = molecular target: T6, human FcγRIIIa F extracellular domain; test: as above
[10] = molecular target: T3, human FcγRIIb extracellular domain; test: as above
[11] = molecular target: T7, human FcγRIa extracellular domain; test: as above
[12] = molecular target: T2, human FcγRIIa R extracellular domain; test: as above
[13] = molecular target: T1, human FcγRIIa H extracellular domain; test: SPR Biacore 8K+; KD for FcγRIIb divided by KD for this FcγR;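 further: antibodies captured on an anti-human Fab kappa SA chip with soluble human FcγR ectodomains flowed over, FcγRIIb KD from steady-state fit, other FcγR KD from Langmuir model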
[14] = molecular target: T5, human FcγRIIIa V extracellular domain; test: as above
[15] = molecular target: T6, human FcγRIIIa F extracellular domain; test: as above
[16] = molecular target: T2, human FcγRIIa R extracellular domain; test: as above
[17] = molecular target: T8, human C1q protein (Calbiochem) (human, UniProt P02745 23-245; P02746 28-253; P02747 29-245); test: ELISA: antibody coated on the plate at the varied concentration, hC1q 3 µg/mL added, detected with HRP-conjugated anti-hC1q antibody, O.D (450-690nm)
T8 construct: bought; also called hC1q
Procedure: The antigen used was a human C1q protein (hC1q).
First, a 96-well maxisorp plate (Thermo fisher) was coated at 4° C. overnight with 50 μL of solutions containing each antibody prepared at 30, 10, 3, 1, 0.3, 0.1, and 0.03 μg/mL in PBS. Each well of the plate was washed with Wash buffer to remove the antibody not bound to the plate, and then the wells were blocked with 200 μL of Blocking/dilution Buffer at room temperature for 2 hours or longer. After the Blocking/dilution Buffer was removed from each well, hC1q (Calbiochem) prepared such that the final concentration was 3 μg/mL in Blocking/dilution Buffer was added at 50 μL per well. The plate was then allowed to stand at room temperature for 1 hour to allow hC1q to bind to the antibody within each well. After washing with Wash Buffer, 50 μL of an HRP-conjugated anti-hC1q antibody (AbDSerotec) diluted with Blocking/dilution Buffer was added to each well, and the plate was incubated while standing for 1 hour. After washing with Wash Buffer, TMB single solution (Invitrogen) was added. The color development reaction of the solution in each well was stopped by addition of Stop Buffer, and then the developed color was measured by absorbance at 450 nm and 690 nm.

[18] = molecular target: T4, hFcγRIIaH on hFcγRIIaH-expressing …; test: cell-based or functional assay
[19] = molecular target: T3, human FcγRIIb extracellular domain; test: SPR Biacore 8K+, antibody captured, FcγR as analyte, steady state affinity model

T6 sequence (P08637 17-208): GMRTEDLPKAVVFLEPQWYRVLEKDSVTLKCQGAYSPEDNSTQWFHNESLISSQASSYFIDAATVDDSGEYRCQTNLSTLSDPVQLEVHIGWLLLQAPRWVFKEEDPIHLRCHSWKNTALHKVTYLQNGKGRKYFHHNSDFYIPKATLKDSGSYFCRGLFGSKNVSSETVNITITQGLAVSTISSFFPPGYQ
T7 sequence (P12314 16-292): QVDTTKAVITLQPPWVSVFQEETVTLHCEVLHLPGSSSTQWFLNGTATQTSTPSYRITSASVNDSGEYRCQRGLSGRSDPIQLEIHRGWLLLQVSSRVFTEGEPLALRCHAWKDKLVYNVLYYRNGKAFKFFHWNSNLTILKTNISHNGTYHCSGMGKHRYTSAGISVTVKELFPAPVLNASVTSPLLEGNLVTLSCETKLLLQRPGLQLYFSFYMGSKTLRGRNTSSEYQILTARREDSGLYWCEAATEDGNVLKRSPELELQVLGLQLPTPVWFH
T5 sequence (P08637 17-208 F176V limits assumed): as the sequence (P08637 17-208) above, with F160V counted along it
hFcγRIIIaV on hFcγRIIIaV-expressing Jurkat cells, sequence (P08637 17-254, form in doubt): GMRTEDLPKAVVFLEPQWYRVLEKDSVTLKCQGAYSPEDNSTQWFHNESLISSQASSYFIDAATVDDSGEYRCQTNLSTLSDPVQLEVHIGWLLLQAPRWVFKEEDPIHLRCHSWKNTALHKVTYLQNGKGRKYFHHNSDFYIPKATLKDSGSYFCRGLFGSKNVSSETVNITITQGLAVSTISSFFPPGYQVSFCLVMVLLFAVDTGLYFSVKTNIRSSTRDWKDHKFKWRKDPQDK
T8 sequence (P02745 23-245 limits assumed, chain 1 of 3): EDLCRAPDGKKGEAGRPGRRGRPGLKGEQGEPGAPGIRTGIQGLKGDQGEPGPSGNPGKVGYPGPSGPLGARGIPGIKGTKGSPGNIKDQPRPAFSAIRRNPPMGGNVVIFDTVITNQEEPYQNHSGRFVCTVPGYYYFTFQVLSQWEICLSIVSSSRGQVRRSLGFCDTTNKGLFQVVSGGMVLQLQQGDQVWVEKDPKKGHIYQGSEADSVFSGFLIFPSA
T8 sequence (P02746 28-253 limits assumed, chain 2 of 3): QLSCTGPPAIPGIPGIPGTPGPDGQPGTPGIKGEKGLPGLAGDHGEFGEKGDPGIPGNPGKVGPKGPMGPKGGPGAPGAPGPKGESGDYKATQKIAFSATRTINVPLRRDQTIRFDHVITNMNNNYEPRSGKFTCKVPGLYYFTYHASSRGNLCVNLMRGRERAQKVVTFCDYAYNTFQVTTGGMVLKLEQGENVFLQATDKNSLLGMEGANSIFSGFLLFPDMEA
T8 sequence (P02747 29-245 limits assumed, chain 3 of 3): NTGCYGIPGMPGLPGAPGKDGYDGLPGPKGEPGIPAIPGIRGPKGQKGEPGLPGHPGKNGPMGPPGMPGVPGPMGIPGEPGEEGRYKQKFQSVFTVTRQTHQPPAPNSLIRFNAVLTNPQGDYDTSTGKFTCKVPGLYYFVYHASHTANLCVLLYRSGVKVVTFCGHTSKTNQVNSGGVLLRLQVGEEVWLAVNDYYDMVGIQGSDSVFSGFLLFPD

Kd [1] [nM] | Kd [2] [nM] | Kd [3] [nM] | Kd [4] [nM] | Kd [5] [nM] | EC50 value (hFcγRIIIaV ADCC Reporter Bioassay, Hepa1-6/hEREG target cells) [6] [ng/mL] | Relative value to KD between G1d and hFcgRs [7] | Relative value to KD between G1d and hFcgRs [8] | Relative value to KD between G1d and hFcgRs [9] | Relative value to KD between G1d and hFcgRs [10] | Relative value to KD between G1d and hFcgRs [11] | Relative value to KD between G1d and hFcgRs [12] | A/I ratio (KD for FcγRIIb divided by KD for each FcγR) [13] | A/I ratio (KD for FcγRIIb divided by KD for each FcγR) [14] | A/I ratio (KD for FcγRIIb divided by KD for each FcγR) [15] | A/I ratio (KD for FcγRIIb divided by KD for each FcγR) [16] | binding result [17] | EC50 value (hFcγRIIaH ADCP Reporter Bioassay, Hepa1-6/hEREG target cells) [18] [ng/mL] | Kd [19] [nM] | Binder
35 | 3.16 | 16 | 0.172 | 121 | 1.53 | 32.1 | 114 | 185 | 1.6 | 0.5 | 13.7 | 181 | 2000 | 396 | 52.4 | binds | 15.8 | 6330 | H240-Kn443/L73-k0//H240-Hl408/L73-k0 (antibody, human IgG1, kappa, also called EGL-ART3; ART3) heavy 1: QDQLVQSGAEVKKPGASVKVSCKASGFNIKDTYIQWVRQAPGQGLEWMGRIDPLRKQTKYREKFEGRVTITADTSTNTAYMELSSLRSEDTAVYYCVRSGREFDYWGQGTLVTVSSASTKGPSVFPLAPSSKSTSGGTAALGCLVKDYFPEPVTVSWNSGALTSGVHTFPAVLQSSGLYSLSSVVTVPSSSLGTQTYICNVNHKPSNTKVDKKVEPKSCDKTHTCPPCPAPEFQWGPMVFLFPPKPKDTLMISRTPEVTCVVVDVSDEEPEVKFNWYVDGVEVHNAKTKPREEQYNATYRVVSVLTVLHQDWLNGKEYKCKVSNDALPAPIEKTISKAKGQPREPQVCTLPPSRDELTKNQVSLWCLVKGFYPSDIAVEWESNGQPENNYKTTPPVLDSDGSFFLYSKLTVDKSRWQQGNVFSCSVMHEALHNHYTQKSLSLSP heavy 2: QDQLVQSGAEVKKPGASVKVSCKASGFNIKDTYIQWVRQAPGQGLEWMGRIDPLRKQTKYREKFEGRVTITADTSTNTAYMELSSLRSEDTAVYYCVRSGREFDYWGQGTLVTVSSASTKGPSVFPLAPSSKSTSGGTAALGCLVKDYFPEPVTVSWNSGALTSGVHTFPAVLQSSGLYSLSSVVTVPSSSLGTQTYICNVNHKPSNTKVDKKVEPKSCDKTHTCPPCPAPELLAGPSVFLFPPKPKDTLMISRTPEVTCVVVDVSHEEPEVKFNWYVDGVEVHNAKTKPREEQYNATYRVVSVLTVLHQDWLNGKEYKCKVSNDALPAPIEETISKAKGQPREPQVYTLPPSRCELTKNQVSLSCAVKGFYPSDIAVEWESNGQPENNYKTTPPVLDSDGSFFLVSKLTVDKSRWQQGNVFSCSVMHEALHNHYTQKSLSLSP light: DIQMTQSPSSLSASVGDRVTITCRASQDIHKYIAWYQQKPGQAPRLLIQYTSTLQPGVPSRFSGSGSGTDYTFTISSLQPEDIATYYCLQYEQLRTFGGGTKVEIKRTVAAPSVFIFPPSDEQLKSGTASVVCLLNNFYPREAKVQWKVDNALQSGNSQESVTEQDSKDSTYSLSSTLTLSKADYEKHKVYACEVTHQGLSSPVTKSFNRGEC
74.9 | 0.51 | 1.5 | 0.028 | 126 | 1.07 | 15 | 695 | 1970 | 2.8 | 3.2 | 13.2 | 47.2 | 6850 | 2350 | 28.1 | binds | 17.1 | 3530 | H240-Kn461/L73-k0//H240-Hl443/L73-k0 (antibody, human IgG1, kappa, also called EGL-ART8; ART8) heavy 1: QDQLVQSGAEVKKPGASVKVSCKASGFNIKDTYIQWVRQAPGQGLEWMGRIDPLRKQTKYREKFEGRVTITADTSTNTAYMELSSLRSEDTAVYYCVRSGREFDYWGQGTLVTVSSASTKGPSVFPLAPSSKSTSGGTAALGCLVKDYFPEPVTVSWNSGALTSGVHTFPAVLQSSGLYSLSSVVTVPSSSLGTQTYICNVNHKPSNTKVDKKVEPKSCDKTHTCPPCPAPEFQWGPMVFLFPPKPKDVLMISRTPEVTCVVVDVSDEEPEVKFNWYVDGVEVHNAKTKPREEQYNATYRVVSVLPVLHQDWLNGKEYKCKVSNDALPAPEEKTISKAKGQPREPQVCTLPPSRDELTKNQVSLWCLVKGFYPSDIAVEWESNGQPENNYKTTPPVLDSDGSFFLYSKLTVDKSRWQQGNVFSCSVMHEALHNHYTQKSLSLSP heavy 2: QDQLVQSGAEVKKPGASVKVSCKASGFNIKDTYIQWVRQAPGQGLEWMGRIDPLRKQTKYREKFEGRVTITADTSTNTAYMELSSLRSEDTAVYYCVRSGREFDYWGQGTLVTVSSASTKGPSVFPLAPSSKSTSGGTAALGCLVKDYFPEPVTVSWNSGALTSGVHTFPAVLQSSGLYSLSSVVTVPSSSLGTQTYICNVNHKPSNTKVDKKVEPKSCDKTHTCPPCPAPELLAGPSVFLFPPKPKDVLMISRTPEVTCVVVDVSHEEPEVKFNWYVDGVEVHNAKTKPREEQYNATYRVVSVLPVLHQDWLNGKEYKCKVSNDALPAPEEETISKAKGQPREPQVYTLPPSRCELTKNQVSLSCAVKGFYPSDIAVEWESNGQPENNYKTTPPVLDSDGSFFLVSKLTVDKSRWQQGNVFSCSVMHEALHNHYTQKSLSLSP light: DIQMTQSPSSLSASVGDRVTITCRASQDIHKYIAWYQQKPGQAPRLLIQYTSTLQPGVPSRFSGSGSGTDYTFTISSLQPEDIATYYCLQYEQLRTFGGGTKVEIKRTVAAPSVFIFPPSDEQLKSGTASVVCLLNNFYPREAKVQWKVDNALQSGNSQESVTEQDSKDSTYSLSSTLTLSKADYEKHKVYACEVTHQGLSSPVTKSFNRGEC
